# Measurements as given in patent US20190300605A1 (Pfizer, published 2019).
# T1: recombinant mouse MAdCAM (mouse, UniProt Q61826 22-365)
# T1 sequence (looked up): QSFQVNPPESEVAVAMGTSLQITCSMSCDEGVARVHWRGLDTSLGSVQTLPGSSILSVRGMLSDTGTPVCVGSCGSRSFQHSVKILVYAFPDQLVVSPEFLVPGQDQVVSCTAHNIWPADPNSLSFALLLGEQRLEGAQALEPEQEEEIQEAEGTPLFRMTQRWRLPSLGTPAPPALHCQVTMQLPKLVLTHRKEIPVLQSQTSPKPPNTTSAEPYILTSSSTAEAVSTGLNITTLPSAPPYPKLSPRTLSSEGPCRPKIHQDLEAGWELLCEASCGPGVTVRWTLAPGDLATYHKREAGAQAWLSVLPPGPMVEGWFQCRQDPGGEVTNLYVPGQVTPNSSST
# T2: human MAdCAM (full length) (human, UniProt Q13477 19-382)
# T2 sequence (looked up): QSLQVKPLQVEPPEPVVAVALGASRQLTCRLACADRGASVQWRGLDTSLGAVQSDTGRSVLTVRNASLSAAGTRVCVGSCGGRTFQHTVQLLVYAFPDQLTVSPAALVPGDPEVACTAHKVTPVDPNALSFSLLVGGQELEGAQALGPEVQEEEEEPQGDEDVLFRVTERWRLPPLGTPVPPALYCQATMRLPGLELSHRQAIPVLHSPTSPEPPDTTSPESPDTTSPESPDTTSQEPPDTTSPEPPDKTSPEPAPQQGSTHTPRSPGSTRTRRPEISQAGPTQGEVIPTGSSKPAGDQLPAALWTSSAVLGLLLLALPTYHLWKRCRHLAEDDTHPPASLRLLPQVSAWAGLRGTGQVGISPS
# T3: chimeric cynomolgus/human MAdCAM (cynomolgus; human, UniProt Q13477 226-382, limits assumed)
# T3 sequence: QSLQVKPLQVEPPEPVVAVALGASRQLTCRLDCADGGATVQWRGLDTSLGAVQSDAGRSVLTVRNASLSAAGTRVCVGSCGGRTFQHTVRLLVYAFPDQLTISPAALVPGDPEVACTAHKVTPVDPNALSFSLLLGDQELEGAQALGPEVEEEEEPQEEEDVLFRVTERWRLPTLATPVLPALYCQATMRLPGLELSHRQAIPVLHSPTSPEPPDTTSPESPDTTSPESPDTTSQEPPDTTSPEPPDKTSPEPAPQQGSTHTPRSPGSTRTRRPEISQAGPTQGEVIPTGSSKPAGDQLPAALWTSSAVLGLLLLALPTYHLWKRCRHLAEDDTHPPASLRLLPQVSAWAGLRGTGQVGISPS
# How the values were obtained:
# recombinant mouse MAdCAM = target: T1, recombinant mouse MAdCAM; assay: ELISA
# [1] = target: T2, human MAdCAM (full length); assay: cell-based or functional assay
# [2] = target: MAdCAM-IgG1 Fc fusion protein (human); assay: cell-based or functional assay
# [3] = target: T4, MAdCAM-IgG1 Fc fusion protein (human); assay: SPR BIAcore protocol 2: mAb amine-coupled, MAdCAM-IgG1 Fc injected
# T4 construct: Made in CHO-DHFR cells; also called MAdCAM-IgFc
# Description: Affinity-purified mAb were immobilized onto the dextran layer of a CMS biosensor chip using amine coupling. […] Samples of MAdCAM-IgG₁ Fc fusion protein in running buffer were prepared at concentrations ranging from 0.2-55 nM (a 0 nM solution comprising running buffer alone was included as a zero reference). Samples were randomized and injected in duplicate for 3 mM each across 4 flow cells using HBS-EP (10 mM HEPES pH 7.4, 150 mM NaCl, 3 mM EDTA, 0.005% Surfactant P20) as running buffer. A flow rate of 100 μL/min was used to minimize mass transport limitations. Dissociation of MAdCAM-IgG₁ Fc fusion protein was monitored for 180 mins, the surface regenerated by a 6 sec injection of 25 mM H₃PO₄ (50 μL/min), or 10 mM (6.22.2), 20 mM (6.67.1, 6.73.2, 6.77.1) to 25 mM (6.34.2) and 45 mM NaOH (6.14.2) and the data analysed using the BIAevaluation (v3.1) software package.
# [4] = target: T4, MAdCAM-IgG1 Fc fusion protein; assay: SPR BIAcore protocol 1: mAb captured, MAdCAM-IgG1 Fc injected
# Description: To perform kinetic analyses, a high density mouse anti-human (IgG₂ and IgG₄) antibody surface over a CMS BIAcore sensor chip was prepared using routine amine coupling. Hybridoma supernatants were diluted 10, 5, 2-fold in HBS-P (10 mM HEPES pH 7.4, 150 mM NaCl, 0.005% Surfactant P20) running buffer containing 100 μg/mL BSA and 10 mg/mL carboxymethyldextran or used neat. Each mAb was captured onto a separate surface using a […] contact time and a 5 mM wash for stabilization of the mAb baseline. MAdCAM-IgG₁ Fc (141 nM) fusion protein was then injected at over all surfaces for one minute, followed by a 3 mM dissociation. The data were normalized for the amount of antibody captured on each surface and evaluated with global fit Langmuir 1:1, using baseline drift models available on the BIAevaluation software provided by BIAcore.
# [5] = target: T4, MAdCAM-IgG1 Fc fusion protein; assay: cell-based or functional assay; remark: listed apart in the source
# [6] = target: T3, chimeric cynomolgus/human MAdCAM; assay: cell-based or functional assay
Binder,binding result (recombinant mouse MAdCAM),"Mean IC50, JY cell adhesion, MAdCAM FlpIn CHO Assay [1]","Mean IC50, JY cell adhesion to MAdCAM IgG1 Fc fusion [2]",Kd [3],koff [3],kon [3],Kd [4],koff [4],kon [4],MAdCAM IgG1 Fc fusion Assay Mean IC50 (Modified) [5],"Functional IC50, cynomolgus/human MAdCAM-CHO/JY adhesion assay [6]"
"anti-MAdCAM monoclonal antibody 1.7.2 (antibody, human IgG2, kappa, V domains shown, human IgG2 kappa from hybridoma 1.7.2; biotinylated for staining of human sections) VH: EVQLVESGGGLVKPGGSLRLSCVASGFTFTNAWMIWVRQAPGKGLEWVGRIKRKTDGGTTDYAAPVKGRFTISRDDSKNTLYLQMNSLKTEDTAVYYCTTGGVAEDYWGQGTLVTVSS VL: not shown",no binding,0.052 µg/mL,0.03 µg/mL,23.6 pM,1.3e-07 s⁻¹,5500 M⁻¹ s⁻¹,≤ 42 pM,≤ 1e-05 s⁻¹,240000 M⁻¹ s⁻¹,–,–
"modified anti-MAdCAM monoclonal antibody 6.34.2-mod (antibody, human IgG2, kappa, V domains shown) VH: QVQLVESGGGVVQPGRSLRLSCAASGFTFSSYGMHWVRQAPGKGLEWVAVISNDGNNKYYADSVKGRFTISRDNSKNTLYLQMNSLRAEDTAVYYCARDSTAITYYYYGMDVWGQGTTVTVSS VL: DIQMTQSPSSLSASVGDRVTITCRASQSISSYLNWYQQKPGKAPKLLIYAASGLKRGVPSRFSGSGSGTDFTLTISSLQPEDFATYYCHQSYSLPFTFGPGTKVDIKR",–,–,–,–,–,–,–,–,–,0.049 µg/mL,–
"modified anti-MAdCAM monoclonal antibody 6.67.1-mod (antibody, human IgG2, kappa, V domains shown) VH: QVQLQESGPGLVKPSETLSLTCTVSGDSISSNYWSWIRQPAGKGLEWIGRIYTSGGTNSNPSLRGRVTMSVDTSKNQFSLKLSSVTAADTAVYYCARDRITIIRGLIPSFFDYWGQGTLVTVSS VL: not shown",–,–,–,–,–,–,–,–,–,0.037 µg/mL,–
"modified anti-MAdCAM monoclonal antibody 7.26.4-mod (antibody, human IgG2, kappa, V domains shown) VH: QVQLVQSGAEVKKPGASVKVSCEASGYTFTSYGIDWVRQAPGQGLEWMGWISVYSGNTNYAQKLQGRVTMSTDTSTSTAYMELRSLRSDDTAVYYCAREGSSSSGDYYYGMDVWGQGTTVTVSS VL: DIVMTQTPLSLSVTPGQPASISCKSSQSLLYSDGKTYLFWYLQKPGQPPQLLIYEVSNRFSGVPDRFSGSGSGTDFTLKISRVEAEDVGVYYCMQSIQLPWTFGQGTKVEIKR",–,–,–,–,–,–,–,–,–,0.033 µg/mL,–
"modified anti-MAdCAM monoclonal antibody 6.77.1-mod (antibody, human IgG2, kappa, V domains shown) VH: EVQLVESGGGLVKPGGSLRLSCAASGFTFSSYSMNWVRQAPGKGLEWVSSISSSSSYIYYADSVKGRFTISRDNAKNSLYLQMNSLRAEDTAVYYCARDGYSSGWSYYYYYGMDVWGQGTTVTVSS VL: DIVMTQTPLSLSVTPGQPASISCKSSQSLLLSDGKTYLNWYLQKPGQPPQLLIYEVSNRFSGVPDRFSGSGSGTDFTLKISRVEAEDVGVYSCMQSIQLMSSFGQGTKLEIKR",–,–,–,–,–,–,–,–,–,0.077 µg/mL,–
"modified anti-MAdCAM monoclonal antibody 6.22.2-mod (antibody, human IgG2, kappa, V domains shown) VH: QVQLVESGGGVVQPGRSLRLSCAASGFTFSSDGMHWVRQAPGKGLEWVAIIWYDGSNKYYADSVKGRFTISRDNSKNTLYLQMNSLRAEDTAVYYCARDPGYYYGMDVWGQGTTVTVSS VL: EIVLTQSPDFQSVTPKEKVTITCRASQRIGSSLHWYQQKPDQSPKLLIKYASQSFSGVPSRFSGSGSGTDFTLTINSLEAEDAATYYCHQSGRLPLTFGGGTKVEIKR",–,–,–,–,–,–,–,–,–,0.058 µg/mL,–

# Further lines, results first:
binding result (recombinant mouse MAdCAM),"Mean IC50, JY cell adhesion, MAdCAM FlpIn CHO Assay [1]","Mean IC50, JY cell adhesion to MAdCAM IgG1 Fc fusion [2]",Kd [3],koff [3],kon [3],Kd [4],koff [4],kon [4],MAdCAM IgG1 Fc fusion Assay Mean IC50 (Modified) [5],"Functional IC50, cynomolgus/human MAdCAM-CHO/JY adhesion assay [6]",Binder
no binding,0.424 µg/mL,0.027 µg/mL,128 pM,2.3e-05 s⁻¹,180000 M⁻¹ s⁻¹,≤ 35 pM,≤ 1e-05 s⁻¹,290000 M⁻¹ s⁻¹,–,–,"anti-MAdCAM monoclonal antibody 1.8.2 (antibody, human IgG2, kappa, V domains shown, human IgG2 kappa from hybridoma 1.8.2) VH: EVQLVESGGGLVKPGGSLRLSCVVSGFTFTNAWMIWVRQAPGKGLEWVGRIKRKTDGGTTDYAAPVKGRFTISRDDSKNTLYLQMNSLKTEDTAVYYCTTGGVAEDYWGQGTLVTVSS VL: not shown"
no binding,0.44 µg/mL,0.02 µg/mL,32.5 pM,1.4e-05 s⁻¹,440000 M⁻¹ s⁻¹,100 pM,0.00023 s⁻¹,2.3e+06 M⁻¹ s⁻¹,–,0.83 µg/mL,"anti-MAdCAM monoclonal antibody 9.8.2 (antibody, human IgG4, kappa, V domains shown, human IgG4 kappa from hybridoma 9.8.2) VH: QVQLVESGGGVVQPGRSLRLSCAASGFTFSSYGMHWVRQAPGKGLEWVAVIWYDGSNEYYADSVKGRFTISRDNSKNTLYLQMNSLRAEDTAVYYCARGAYHFAYWGQGTLVTVSS VL: DIQMTQSPSSLSASVGDRVTITCQASQDISNYLNWYQQKPGKAPKLLIYDASNLETGVPSRFSGSGSGTDFTFTISSLQPEDIATYSCQHSDNLSITFGQGTRLEIKR"
no binding,0.369 µg/mL,0.02 µg/mL,–,–,–,93 pM,0.00013 s⁻¹,1.4e+06 M⁻¹ s⁻¹,–,–,"anti-MAdCAM monoclonal antibody 6.73.2 (antibody, human IgG4, kappa, V domains shown, human IgG4 kappa from hybridoma 6.73.2) VH: EVQLLESGGDLVQPGGSLRLSCAASGFTFRSYAMNWVRQAPGKGLEWVSVISGRGGTTYYADSVKGRFTISRDNSKNTLYLQMNSLRAEDAAVYYCAKIAVAGEGLYYYYGMDVWGQGTTVTVSS VL: DIQMTQSPSSLSASVGDRVTFTCRASQNITNYLNWYQQKPGKAPKLLIYAASSLPRGVPSRFRGSGSGTDFTLTISSLQPEDFATYYCQQSYSNPPECGFGQGTTLDIKR"
no binding,0.291 µg/mL,0.011 µg/mL,< 10 pM,< 5e-06 s⁻¹,500000 M⁻¹ s⁻¹,≤ 7.7 pM,≤ 1e-05 s⁻¹,130000 M⁻¹ s⁻¹,–,0.53 µg/mL,"anti-MAdCAM monoclonal antibody 6.14.2 (antibody, human IgG4, kappa, V domains shown, human IgG4 kappa from hybridoma 6.14.2) VH: EVQLLESGGGLVQPGGSLRLSCAASGLTFNNSAMTWVRQAPGKGLEWVSTTSGSGGTTYYADSVKGRFTISRDSPKNTLYLQMNSLRAEDTAVYYCAARGYSYGTTPYEYWGQGTLVTVSS VL: DIQMTQSPSSLSASVGDRVTITCRASRSISSYLNWYQQKPGKAPKVLIFFVSSLQSGVPSRFSGSGSGTDFTLTISSLQPEDFATYYCQQNYIPPITFGQGTRLEIRR"
no binding,0.52 µg/mL,–,–,–,–,≤ 6.7 pM,≤ 1e-05 s⁻¹,1.5e+06 M⁻¹ s⁻¹,–,0.64 µg/mL,"anti-MAdCAM monoclonal antibody 6.77.1 (antibody, human IgG4, kappa, V domains shown, human IgG4 kappa from hybridoma 6.77.1) VH: EVQLVESGGGLVKPGGSLRLSCAASGFTFSSYSMNWVRQAPGKGLEWVSSISSSSSYIYYADSVKGRFTISRDNAKNSLYLQMNSLRAEDTAVYYCARDGYSSGWSYYYYYGMDVWGQGTTVTVSS VL: DIVMTQTPLSLSVTPGQPASISCNSSQSLLLSDGKTYLNWYLQKPGQPPQLLIYEVSNRFSGVPDRFSGSGSGTDFTLKISRVEAEDVGVYSCMQSIQLMCSFGQGTKLEIKR"
no binding,–,–,–,–,–,–,–,–,–,–,"anti-MAdCAM monoclonal antibody 7.16.6 (antibody, human IgG2, kappa, V domains shown, Alexa488-labelled in the sandwich ELISA, biotinylated for staining of human sections) VH: QVQLVQSGAEVKKPGASVKVSCKASGYTFTSYGINWVRQAPGQGLEWMGWISVYSGNTNYAQKVQGRVTMTADTSTSTAYMDLRSLRSDDTAVYYCAREGSSSSGDYYYGMDVWGQGTTVTVSS VL: DIVMTQTPLSLSVTPGQPASISCKSSQSLLHTDGTTYLYWYLQKPGQPPQLLIYEVSNRFSGVPDRFSGSGSGTDFTLKISRVEAEDVGIYYCMQNIQLPWTFGQGTKVEIKR"
